From article PMC8998196, “A Second Gamma-Glutamylpolyamine Synthetase, GlnA2, Is Involved in Polyamine Catabolism in Streptomyces coelicolor” (International Journal of Molecular Sciences, 2022) come the findings set out here.

In one data set the target is T1, GlnA3 (His-GlnA3) (Streptomyces coelicolor, UniProt Q9KZC7).
T1 construct: His-tagged GlnA3
T1 sequence (Q9KZC7 1-466): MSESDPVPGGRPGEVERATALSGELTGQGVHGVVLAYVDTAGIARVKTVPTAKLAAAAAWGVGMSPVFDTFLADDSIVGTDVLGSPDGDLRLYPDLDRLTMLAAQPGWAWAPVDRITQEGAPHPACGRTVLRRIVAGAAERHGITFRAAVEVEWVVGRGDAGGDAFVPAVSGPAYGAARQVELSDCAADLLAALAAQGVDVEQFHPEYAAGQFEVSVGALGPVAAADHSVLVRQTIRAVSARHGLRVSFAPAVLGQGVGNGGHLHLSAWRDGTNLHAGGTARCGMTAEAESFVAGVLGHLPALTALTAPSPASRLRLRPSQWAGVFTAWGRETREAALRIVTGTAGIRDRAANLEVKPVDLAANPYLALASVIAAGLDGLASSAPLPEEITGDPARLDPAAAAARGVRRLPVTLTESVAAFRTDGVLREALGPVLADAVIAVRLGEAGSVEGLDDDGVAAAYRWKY
Put plainly: phosphate release (molybdate) modified GS assay. Type of data set: biochemical. To be noted: 50 mM substrate, 10 µg enzyme, co-substrates glutamate and ATP, 30 °C, 5 min.

Substrate in data set [1]: NCCCCN
Put plainly: phosphate release (molybdate) modified GS assay, Michaelis-Menten fit. Type of data set: biochemical, Streptomyces coelicolor. To be noted: co-substrates glutamate and ATP, Mg2+, 30 °C, 5 min.

Substrate in data set [2]: Nc1ncnc2c1ncn2[C@@H]1O[C@H](COP(=O)(O)OP(=O)(O)OP(=O)(O)O)[C@@H](O)[C@H]1O
The data set is described as above. Type of data set: biochemical, Streptomyces coelicolor. To be noted: polyamine and glutamate as co-substrates, Mg2+, 30 °C, 5 min.

Substrate in data set [3]: N[C@@H](CCC(=O)O)C(=O)O
The data set is described as above. To be noted: polyamine and ATP as co-substrates, Mg2+, 30 °C, 5 min, L form not given. Type of data set: biochemical, Streptomyces coelicolor.

`NCCCCNCCCN` [spermidine]: the “phosphate release (molybdate) modified GS assay” value at GlnA3 (His-GlnA3) was “GlnA3 demonstrated a significant specificity towards spermidine and spermine, compared with GlnA2”.
Still for that read-out and setting: the same measure for `NCCCNCCCCNCCCN` [spermine]: “GlnA3 demonstrated a significant specificity towards spermidine and spermine, compared with GlnA2”.

B1: GlnA2 (His-GlnA2) (Streptomyces coelicolor A3(2)) (protein)
chain: MDKQQEFVIRTLEERDIRFVRLWFTDVLGFLKSVAVAPAELEQAFDEGIGFDGSAIEGFARVYESDMIAKPDPSTFQVLPWRAEAPGTARMFCDILMPDGSPSFADPRYVLKRALARTSDLGFTFYTHPEIEFFLLKDKPVDGSVPTPADNSGYFDHTPQNIGMDFRRQAITMLESMGISVEFSHHEGAPGQQEIDLRYADALSTADNVMTFRLVMKQVALEQGLQATFMPKPFSEYPGSGMHTHLSLFEGDRNAFYESGAEYQLSKVGRSFIAGLLRHAAEISAVTNQWVNSYKRIWGGTERTAGAGGEAPSYICWGHNNRSALVRVPMYKPGKTGSARVEVRSIDSGANPYLTYAVLLAAGLKGIEEGYELPPGAEDDVWALSDAERRALGIEPLPQNLGEALALMERSDLVAETLGEHVFDFFLRNKRQEWEEYRSQVTAFELRKSLPVL
notes: dodecamer only modelled
What is called Km is the concentration of substrate that gives half-maximal velocity. For B1, the Michaelis-Menten constant (Km) in data set [1] was determined as 550 ± 100 µM; in data set [2], 130 ± 100 µM; in data set [3] it was 1060 ± 200 µM.
